This assay has as its target T1, DJ-1 (human (endogenous in M17D neuroblastoma cells)), Q99497.
T1 chain: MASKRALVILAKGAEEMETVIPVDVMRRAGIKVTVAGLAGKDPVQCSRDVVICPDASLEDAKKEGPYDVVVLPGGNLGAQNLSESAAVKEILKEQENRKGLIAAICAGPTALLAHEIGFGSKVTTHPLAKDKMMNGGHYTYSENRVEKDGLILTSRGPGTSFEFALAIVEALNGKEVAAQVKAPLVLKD
In words: cross-linking. Conditions: remark: other sources report otherwise.

B1: DJ-1, Q99497 1-189 (natural protein)
chain: MASKRALVILAKGAEEMETVIPVDVMRRAGIKVTVAGLAGKDPVQCSRDVVICPDASLEDAKKEGPYDVVVLPGGNLGAQNLSESAAVKEILKEQENRKGLIAAICAGPTALLAHEIGFGSKVTTHPLAKDKMMNGGHYTYSENRVEKDGLILTSRGPGTSFEFALAIVEALNGKEVAAQVKAPLVLKD
As to B1, the stoichiometry N worked out at 2.

The values are drawn from paper PMC6408259.
